Data as given in patent publication US6156551.
Where no end group is shown, it is not given here. [ ]: non-standard residue; d: D form. pY = N[C@@H](Cc1ccc(OP(=O)(O)O)cc1)C(=O)O

Legend:
[1] = molecular target: reduced carboxyamidomethylated and maleylated-lysozyme (not phosphorylated) (Gallus gallus (Chicken)) (UniProt P00698)
[2] = molecular target: [^32 P]reduced carboxyamidomethylated and maleylated-lysozyme (Gallus gallus (Chicken)) (UniProt P00698)
[3] = molecular target: T1, D61A activated mutant of SHP-2 (human)
T1 sequence: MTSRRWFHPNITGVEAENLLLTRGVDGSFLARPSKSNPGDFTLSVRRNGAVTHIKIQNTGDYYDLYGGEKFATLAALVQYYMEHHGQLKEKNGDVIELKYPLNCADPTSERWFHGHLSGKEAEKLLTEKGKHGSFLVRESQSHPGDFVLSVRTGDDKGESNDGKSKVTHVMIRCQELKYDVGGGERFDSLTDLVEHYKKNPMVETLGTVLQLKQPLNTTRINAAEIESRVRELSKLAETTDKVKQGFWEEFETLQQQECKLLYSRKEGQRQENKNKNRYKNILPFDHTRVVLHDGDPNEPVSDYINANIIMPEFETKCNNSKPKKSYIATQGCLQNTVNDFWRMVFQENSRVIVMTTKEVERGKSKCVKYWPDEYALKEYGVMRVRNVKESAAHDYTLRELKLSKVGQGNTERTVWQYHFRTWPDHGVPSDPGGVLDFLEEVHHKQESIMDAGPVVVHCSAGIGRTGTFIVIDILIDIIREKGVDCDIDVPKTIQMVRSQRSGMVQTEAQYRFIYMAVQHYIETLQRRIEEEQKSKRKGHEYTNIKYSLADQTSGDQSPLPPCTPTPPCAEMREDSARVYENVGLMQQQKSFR

Question: How did the phosphorylation of RCM-lysozyme with [γ-^32 P] ATP [1] turn out when “recombinant full length Src kinase (enzyme)” was run?
Answer: Its phosphorylation of RCM-lysozyme with [γ-^32 P] ATP is 2000 cpm/pmol.

Question: With E76A activated mutant of SHP-2 (enzyme) as the molecule, how does the phosphatase activity ([32P] phosphate released from [^32 P]RCM-lysozyme) (pmol/min-pmol) [2] read?
Answer: The phosphatase activity ([32P] phosphate released from [^32 P]RCM-lysozyme) (pmol/min-pmol) was 100.

B1: SHPS-1 phosphotyrosine peptide DIT[pY]…[pY]ASIQTS-NH2 (peptide)
peptide: DIT[pY]ADLNLPKGKKPAPQAAEPNNHTE[pY]ASIQTS-NH2
modifications: N-terminus assumed
SMILES: CC[C@H](C)[C@H](NC(=O)[C@H](CO)NC(=O)[C@H](C)NC(=O)[C@H](Cc1ccc(OP(=O)(O)O)cc1)NC(=O)[C@H](CCC(=O)O)NC(=O)[C@@H](NC(=O)[C@H](Cc1c[nH]cn1)NC(=O)[C@H](CC(N)=O)NC(=O)[C@H](CC(N)=O)NC(=O)[C@@H]1CCCN1C(=O)[C@H](CCC(=O)O)NC(=O)[C@H](C)NC(=O)[C@H](C)NC(=O)[C@H](CCC(N)=O)NC(=O)[C@@H]1CCCN1C(=O)[C@H](C)NC(=O)[C@@H]1CCCN1C(=O)[C@H](CCCCN)NC(=O)[C@H](CCCCN)NC(=O)CNC(=O)[C@H](CCCCN)NC(=O)[C@@H]1CCCN1C(=O)[C@H](CC(C)C)NC(=O)[C@H](CC(N)=O)NC(=O)[C@H](CC(C)C)NC(=O)[C@H](CC(=O)O)NC(=O)[C@H](C)NC(=O)[C@H](Cc1ccc(OP(=O)(O)O)cc1)NC(=O)[C@@H](NC(=O)[C@@H](NC(=O)[C@@H](N)CC(=O)O)[C@@H](C)CC)[C@@H](C)O)[C@@H](C)O)C(=O)N[C@@H](CCC(N)=O)C(=O)N[C@H](C(=O)N[C@@H](CO)C(N)=O)[C@@H](C)O
Question: For B1, which activation of phosphatase activity on [^32 P]RCM-lysozyme by the phosphotyrosine peptide (fold higher than wildtype SHP-2) [3] is on record?
Answer: The activation of phosphatase activity on [^32 P]RCM-lysozyme by the phosphotyrosine peptide (fold higher than wildtype SHP-2) was 5.
